Consider one substance from patent US5783663A, “Peptide ligands for affinity purification of fibrinogen” (Bayer Corporation, priority 1998, dated 1998).

One experiment concerns the target T1, Ribonuclease S-protein (Bos taurus, UniProt P61823).
T1 construct: Ribonuclease S-protein was purchased from Sigma (St. Louis, Mo.); purchased Sigma (St. Louis, Mo.)
T1 sequence (P61823 47-150 limits assumed): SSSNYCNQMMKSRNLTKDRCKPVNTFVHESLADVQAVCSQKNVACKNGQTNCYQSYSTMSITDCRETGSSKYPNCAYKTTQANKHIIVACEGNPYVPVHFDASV
Nature of the experiment: Radiological screening of library spiked with YNFEVL-beads against 14C-S-protein, scintillation counting of isolated beads. The class given is binding. The text has this:
Following the protocol of Jentoft et al. (21), aminated beads (resin modified with TOTDA-linker) and proteins were labeled using reductive ^14 C-methylation. The ^14 C-methylated beads are hereafter referred to as ^14 C-Test Beads. The ^14 C-labeled formaldehyde was obtained from Dupont-NEN (55 Ci/mole, Boston, Mass.). Ribonuclease S-protein was purchased from Sigma (St. Louis, Mo.); human fibrinogen, from Chromogenix AB (Molndal, Sweden). To separate ^14 C-labeled protein from non-incorporated ^14 C-formaldehyde, an Econopac 10DG Desalting Column (Biorad, Hercules, Calif.) was employed. The ^14 C-labeled proteins were stored in the labeling buffer, 0.1M sodium phosphate buffer (Fisher, Pittsburgh, Pa.), pH 7, at -18° C. Pure protein solutions were quantitated using A280, with extinction coefficients of 1.5 and 0.73 for fibrinogen and S-protein, respectively. The resulting protein concentrations were 30 μM for ^14 C-S-protein, and 4 μM for ^14 C-fibrinogen. Maximal labeling yield was calculated based on maximum of two ^14 C-labeled methyl groups per mole of amino groups.
The number of disintegrations per minute, DPM, of radioactive samples was determined using a 1500 TriCarb Liquid Scintillation Analyzer from Packard (Meridan, Conn.) and CytoScint ES scintillation liquid from ICN (Casta Mesa, Calif.). Values of DPM are corrected for the background of the liquid scintillation counter (30-35 DPM) unless specified otherwise.
Library beads, 20 mg in dry weight per experiment, were first mixed with 1 ml of blocking solution to block non-specific interactions between the peptides and ^14 C-protein. For screenings against S-protein, 2% bovine serum albumin (BSA, Sigma) in PBS containing 0.05% Tween (Sigma) was used as blocking solution. For screenings against fibrinogen, either 2% BSA in PBS with 0.05% Tween or Blocker™Casein (1%) in PBS (Pierce) was used. Each mixture of beads and blocking solution was incubated in a Cryotube (Nunc, Denmark) for 2 hours on a tube rotator.
The blocked library beads were then exposed to target protein by pipetting the ^14 C-labeled protein directly into the mixture of beads and blocking solution. […] For fibrinogen experiments, 13 μl and 65 μl of the 4 μM ^14 C-fibrinogen solution was added, yielding final fibrinogen concentrations of 50 nM and 250 nM, respectively. The mixtures of beads, blocking solution, and protein solution were further rotated for 1.5 hours (S-protein experiment) and for 1 hour (fibrinogen experiment).
After completion of blocking and binding, the beads were transferred to a Polyprep column (Biorad) and rinsed with PBS containing 0.05% Tween 20 (Sigma) until the column flow-through reached background DPM levels. The total rinsing volumes were 200 ml and 140 ml for S-protein and fibrinogen, respectively. […]

In a further experiment the target is T2, S-protein (Bos taurus, UniProt P61823).
T2 sequence (P61823 47-150 limits assumed): T1 sequence (P61823 47-150 limits assumed)
The settings on record: reference (3); cited from earlier work.

Turning to YNFEVL, in the experiment with Ribonuclease S-protein (14C-S-protein 1 µM in PBS with 0.05% Tween 20, 2% BSA, average of isolated positive beads), the “amount of protein bound per bead, average” value came to 133 fmol protein/bead. Besides, the “radioactivity of 14C-S-protein bound per bead” value in the experiment with Ribonuclease S-protein (14C-S-protein 1 µM in PBS with 0.05% Tween 20, 2% BSA, background (33 DPM) subtracted) is reported as 41-243 DPM/bead. The “amount of protein bound per bead” value with Ribonuclease S-protein (14C-S-protein 1 µM in PBS with 0.05% Tween 20, 2% BSA, range over isolated positive beads) is given as 49-289 fmol protein/bead. Further, the “peptide to protein ratio (YNFEVL-peptide molecules to 1 S-protein molecule)” value with Ribonuclease S-protein (from average 70 pmol peptide/bead and 133 fmol protein/bead) was roughly 500. The “association constant for binding S-protein” value with S-protein is listed as 10^4 -10^5 M^-1.
